Results: the DeepSol protein solubility set

Test: soluble on expression in E. coli; label from the status in PepcDB or PDB records

Row | Sequence | soluble on expression in E. coli
1 | MGHHHHHHSHELIREVEMGPFKHTVDDGLDIRKAAFECMYTLLDSCLDRLDIFEFLNHVEDGLKDHYDIKMLTFLMLVRLSTLCPSAVLQRLDRLVEPLRATCTTKVKANSVKQEFEKQDELKRSAMRAVAALLTIPEAEKSPLMSEFQSQISSNPELAAIFESIQKDSSSTNLESMDTS | not soluble
2 | SLPLTMTVLILLLLPTGQAAPKDGVTRPDSEVQHQLLPNPFQPGQEQLGLLQSYLKGLGRTEVQLEHLSREQVLLYLFALHDYDQSGQLDGLELLSMLTAALAPGAANSPTTNPVILIVDKVLETQDLNGDGLMTPAELINFPGVALRHVEPGEPLAPSPQEPQAVGRQSLLAKSPLRQETQEAPGPREEAKGQVEARRESLDPVQEPGGQAEADGDVPGPRGEAEGQAEAKGDAPGPRGEAGGQAEAEGDAPGPRGEAGGQAEARENGEEAKELPGETLESKNTQNDFEVHIVQVENDEI | soluble
3 | MTKAKDLTGKKIAILAADGVEEIELTSPRAAIEAAGGTTELISLEPGEIQSMKGDIEPQEKYRVDHVVSEVQVSDYDGLLLPGGTVNPDKLRLEEGAMKFVRDMYDAGKPIAAICHGPWSLSETGIAQGLKMTSWSSLKRELTLAGAQWVDEECVTDKGVVTSRKPDDLPAFNKKIVEEFAEGDHSSRRK | soluble
4 | MGSDKIHHHHHHMDRVLFLAMTGAKHEAWQQATTANNLANVNTNAFKADLAAYRALPVVGDGAPTRTYVVDNTIGFDASQGSLQHTGNPSDFALGTPGFFAVQGADGQEAYTRDGGYVLDATGLMRTHSGLLIMGDGGPITVPAGSQVQLGSDGSVMAVPQSGANRAPQLVGQIKMVNPGPKDVYKGEDKLFHVNGGGTLPASADVKLVPETLESSNVNSVEALVQMISHGRQYELNIKMMQTSQQNDQQAAQLLSMS | not soluble
5 | MVHYKVSYFPIRGAGEIARQILAYAGQDFEDNRIPKEEWPAVKPSTPFGQLPLLEVDGKVLAQSHAIARYLARQFGINGKCAWEEAQVNSVADQFKDYLNEVRPYFMVKMGFAEGDLDALAKDVFLPGFKKHYGFFANFLKSAGSGYLVGDSLTFVDLLVAQHTADLLAANAALLDEFPQFKAHQEKVHSNANIKKWLETRPVTPF | not soluble
6 | MKTITQQYLTGERALFKAHDLEIDNTTFADGESPLKESRNVTLKQPIFKWKYPLWYSQHVTVDQGLFETMSRSGIWYTKDITITNSTLQAPKLFRRASQVKLAHVHFSDAEETLWNCQDITLNDVQAAGDYFGMNSQNIRIDGFNLVGNYAFDGAKNVEIHHATLMTKDALWNCENVTVYDSQIIGEYLGWNSKNIRFVNCTIESDQGLCYMDNVKLENCTLLNTDLAFEYCRNIDADVVSTIDSVKNPLSGRIHAQAIGEIIMDDPEVDPHQTLISVDHESRAPHAV | not soluble
7 | MANSLRNVNDYDPFKYRPSYFDLEAPTESFALGKFVDAIEVKQMALDAFSESSMVSIATSQLPKTAYTATSFIESEYYSFPYLFNDQKYYWDYFDYKIPAADFAVLELELDLNNQQDQQIKDHFIDPAIKAYKQLGDSTGLFATKPLTEYQNDTHYLLGYPVVPTDHTQLWECKQGAERFSYGYFYSNMARLTKNLRQGDPNAGSKTHIEYSNELLDKDSMDQGIVR | not soluble
8 | MASLLDKAKDFVADKLTAIPKPEGSVTDVDLKDVNRDSVEYLAKVSVTNPYSHSIPICEISFTFHSAGREIGKGKIPDPGSLKAKDMTALDIPVVVSYSILFNLARDVGVDWDIDYELQIGLTIDLPVVGEFTIPISSKGEIKLPTFKDFF | soluble
9 | MFREAELRNGLRVIAEVVPGARSVALGYFVKTGARDETKEESGVSHFLEHMVFKGPEDMDALAVNRAFDRMGAQYNAFTSEEATVYYGAVLPEFAYDLLGLFAKLLRPALREEDFQTEKLVILEEIARYQDRPGFMAYEWARARFFQGHPLGNSVLGTRESITALTREGMAAYHRRRYLPKNMVLAATGRVDFDRLLAEAERLTEAWPEGEAERAYPPLTPAFGVEERPYEKARALYLVALFPGVAYQEEARFPGQVLAHLLGEEGSGRLHFALVDKGLAEVASFGLEEADRAGTFHAYVQADPARKGEVLAVLQEELDRLGREGVGEEEVERAKTPLATGLVFAGETPMQRLFHLGMEYLYTGRYLSLEEVKARVQRVTSREVNALLERGFLEKGLYYLVLPHGA | soluble
10 | TTPAPESNRKYIIAVTACPTGIAHTYMAEDALKKKAKEMGVDIKVETNGSEGIKNRLTAEDIARADGVIVAADKKVEMNRFDGKKLVNRPVSDGIRKTEELINLAISGEAPTFHGSDSAA | not soluble
11 | MGSDKIHHHHHHAFCLDNGLGRTPPMGWMSWTAFYCEIDCVKHPTGCINEQLYKDMADQLVSGGYDKVGYKSVHIDDCWSEMERDSHGILVANKTRFPSGMKALAKYMHDRGLKFGIYEDYGTKTCGGYPGSYKHEKVDAQTFAAWDVDYLKLDGCNIDQAMMPIGYPLFEKELNETGRPIMYSCSW | not soluble
12 | MGSDKIHHHHHHMTSVSPHKKAKALKPTSRRPAKELCSECGLCDTYYIHYVKEACAFINQQIGELEVETHTRSRHLDNPDELYFGVHQDMIAARKQQPIEGAQWTGIVSSIAIEMLNRGLVEGVVCVQNTKEDRFQPMPIIARTPEEILAARVNKPTLSPNLSVLEQIEKSGMKRLLVIGVGCQIQALRAVEKQLGLEKLYVLGTPCVDNVNRAGLQKFLETTSRSPETVVHYEFMQDFRVHFKHEDGSSETVPFFGLKTNKLKDVFAPSCMSCFDYVNSLADLVVGYMGAPFGWQWIVVRNDTGKEMLDLVQDQLDTQPVTSKGNRKEAVQQSIPAYDKGVTLPMWAAKLMGVVIEKIGPKGLEYARFSIDSHFTRNYLYVKRNHPEKLEAHVPEFAKRIVEQYKLPE | not soluble
13 | MSLEITKIEVHVIGPEDKRYTWSEDIEEVYQSNTLIKIFTDEDIVGEAAIWNATYFEYDKYTAESLRHLLPILIGKDPLNREEILYDIRPRVFPQPPGAQALIDNALWDILGKKCKSPIYKILGGRRDKIKSYASTVMYNTIDEYLKVVDEMKEQGFSAVKFHTYCIPKKDLELAEAARKAFPSMSFMIDAENNYDLESSLIVAKKLEKLEFTWFEAPLPDYDFAGYKKITDSVGIKVIPSGNWVVDLQRFSEAIHNKVWSATRTDMAMMGGITNCKKAIDLSSAGGLDCEIMSWGYTLVSAANLHLMLSSDNCSYYEQPLPYNNFEFGMKDVLRTSQDGYMYAPTKPGLGMEIDWDKMMSKNIYSITCEEGKKISLVHSEGHHHHHH | soluble
14 | HMSSGNASWFQAIKAKKLNTPPPKFEGSGVPDNENMKPSQQHGYWRRQARFKPGKGGRCPVPDAWYFYYTGTGPAADMNWGDTQDGIVWMAAKGADTKSRSNQGTRDPDKFDQYPLRFSDGGPDGNFRWDFIPL | soluble
15 | MKVVRVCGGFGNQLFQYAFYLAVKHKFNETTKLDIHDMASYELHNGYELERIFNLNENYCSAEEKLAVQSTKNIFTKLLKEIKKYTPFIPRTYIKEKKHLHFSYQEVDLGTKDTSIYYRGSWQNPQYFNSIASEIREKLTFPEFTEPKSLALHQEISEHETVAVHIRRGDYLKHKALGGICDLPYYQNAIKEIEGLVEKPLFVIFSDDITWCRANINVEKVRFVDWNSGEQSFQDMHLMSLCTHNIIANSSFSWWGAWLNANPNKIVISPNKWIHYTDSMGIVPSEWIKVETSILEHHHHHH | not soluble
16 | MGSDKIHHHHHHLITVTDLSLQIGSRTLYSDVNLKFTPGNCYGIIGANGAGKSTFLKLLEGKMEPTTGSISMGPNERMSSLNQDHFAFEDFSVMETVIQGHQKLYQVMKERDALYAKADFSEEDGVKAAELETEFAELDGWNAEADAAQLLQSMSIPEDMHQKQMSELAESDKVKVLLAQALFGNPDTLLLDEPTNGLDVHTTAWLENFLADYENIVLVVSHDRHFLNQVCTQMCDVDRGQIKLYVGNYDFWYESSKLATELARQQNAKKEEQIKQLQEFIARFSANASKSKQATSRKKQLDKISLDDIKPSSRKYPYIKFEMNRDLGNDLLRVDNVSYKSGDEQLLDNVSFIIRPGDKVAFLSRNTRATTALMEIIAGRLEPDSGTVTWGQTTSFNYMSRDLNANFDNDELTILDWLRQYADKEHDDNTFLRGFLGRMLFSGDEINKQIKVLSGGEKVRCQLSRMMLEAANVLVMDDPTNHLDLESITALNEAMENYPGSILFTSHDHEFIQTIANHIIEVGPKGVVARADISYDDFLAHPTVQEQVAKIY | not soluble
